A value given as a limit tells only on which side of the number the result lay.

Experiment [1] deals with CCR5 (Homo sapiens (Human)) (UniProt P51681).
Experiment [2] has the same target. The source holds these as a separate data set.
Experiment [3] shares this target. The source holds these as a separate data set.

“NNY-P2Thz-Y3Chg-RANTES (4-68) (from UniProt P13501) (ligand)” displayed an inhibition of envelope-mediated cell fusion in experiment [1] of over 50 % inhibition. For the same substance, the Mean Relative Potency (IC50 in the envelope-mediated cell fusion assay, relative to AOP-RANTES = 100) (relative to AOP-RANTES = 100) in experiment [2] amounted to 2.
In the same order, the values of “NNY-P2Thz-Y3tButA-RANTES (4-68) (from UniProt P13501) (ligand)” are over 50 % inhibition and 4.
As to “NNY-P-Y3Chg-RANTES (4-68) (from UniProt P13501) (ligand)”, in experiment [3], the Average Infectivity IC50 (cell-free viral infection assay) was determined as 0.012 nM and the Cell-Fusion Result For Comparison (IC50) turned out to be 0.026 nM. This substance registered an inhibition of envelope-mediated cell fusion in experiment [1] of over 50 % inhibition. This substance yielded a Mean Relative Potency (IC50 in the envelope-mediated cell fusion assay, relative to AOP-RANTES = 100) (relative to AOP-RANTES = 100) in experiment [2] of 7.
In the same order, the values of “NNY-P-Y3tbuA-RANTES (4-68) (from UniProt P13501) (ligand)” are 0.014 nM, 0.038 nM, over 50 % inhibition and 7.

These data come from patent US20040077835A1.
